Where a chain is given by its changes, count along the chain named. Where no end group is shown, it is not given here.
B1: EVO223 (designed binder)
chain: KPDFCFLENDPGPCRAAAVRYFYNNQTKQCERFYYGGCLGNMNNFVTLEECKNICEDG
notes: Modified TFPI-D2 Kunitz domain; made as m1
B2: EVO21c (designed binder)
chain: B1 chain with N9E, A17L, A18K, V19R, Y34G, L39F
modifications: not fully specified; cysteine pairing not given here
notes: as for B1
B3: EVO25 (designed binder)
chain: B1 chain with A17L, A18K, V19R, L39F, V46E
modifications: not fully specified; cysteine pairing not given here
notes: as for B1
B4: EVO221 (designed binder)
chain: B1 chain with P13V
modifications: not fully specified; cysteine pairing not given here
notes: as for B1
B5: EVO222 (designed binder)
chain: B1 chain with P13L
modifications: not fully specified; cysteine pairing not given here
notes: as for B1
B6: EVO224 (designed binder)
chain: B1 chain with P13V, A17L
modifications: not fully specified; cysteine pairing not given here
notes: as for B1
B7: EVO2 (designed binder)
chain: B1 chain with N9E, A17V, A18K, V19R, Y34K, V46E
modifications: not fully specified; ends and bridges not checked
notes: Modified Kunitz domain TFPI-D2 of human TFPI-1; recombinant from E. coli, freed from a His6-S100A4 fusion by TEV protease; also called TFMI-2b

How the values were obtained:
[1] = molecular target: T1, human MASP-2 (in normal human serum) (human, UniProt O00187 16-686); assay: cell-based or functional assay
T1 sequence (O00187 16-686 limits assumed): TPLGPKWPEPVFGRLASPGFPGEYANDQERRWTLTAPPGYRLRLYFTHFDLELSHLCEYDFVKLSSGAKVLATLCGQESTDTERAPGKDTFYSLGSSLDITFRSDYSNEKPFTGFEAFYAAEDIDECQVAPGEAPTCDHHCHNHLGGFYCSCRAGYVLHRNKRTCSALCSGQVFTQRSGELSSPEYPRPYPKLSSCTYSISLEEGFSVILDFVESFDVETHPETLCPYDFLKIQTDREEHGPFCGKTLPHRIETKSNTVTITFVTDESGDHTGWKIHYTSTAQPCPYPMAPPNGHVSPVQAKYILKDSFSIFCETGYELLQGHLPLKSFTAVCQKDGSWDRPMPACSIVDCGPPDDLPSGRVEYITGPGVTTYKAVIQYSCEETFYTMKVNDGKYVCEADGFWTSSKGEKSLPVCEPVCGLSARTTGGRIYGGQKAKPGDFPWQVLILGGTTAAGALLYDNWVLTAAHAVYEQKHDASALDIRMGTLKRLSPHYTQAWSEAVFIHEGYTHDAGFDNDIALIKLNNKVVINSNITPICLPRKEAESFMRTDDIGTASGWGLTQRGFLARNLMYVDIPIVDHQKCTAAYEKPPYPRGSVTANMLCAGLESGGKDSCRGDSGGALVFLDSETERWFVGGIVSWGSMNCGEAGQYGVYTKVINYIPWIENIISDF

[2] = molecular target: rat MASP-2 (in rat serum) (rat, UniProt Q9JJS8 20-685); assay: cell-based or functional assay
Sequence of rat MASP-2 (in rat serum) (Q9JJS8 20-685 limits assumed): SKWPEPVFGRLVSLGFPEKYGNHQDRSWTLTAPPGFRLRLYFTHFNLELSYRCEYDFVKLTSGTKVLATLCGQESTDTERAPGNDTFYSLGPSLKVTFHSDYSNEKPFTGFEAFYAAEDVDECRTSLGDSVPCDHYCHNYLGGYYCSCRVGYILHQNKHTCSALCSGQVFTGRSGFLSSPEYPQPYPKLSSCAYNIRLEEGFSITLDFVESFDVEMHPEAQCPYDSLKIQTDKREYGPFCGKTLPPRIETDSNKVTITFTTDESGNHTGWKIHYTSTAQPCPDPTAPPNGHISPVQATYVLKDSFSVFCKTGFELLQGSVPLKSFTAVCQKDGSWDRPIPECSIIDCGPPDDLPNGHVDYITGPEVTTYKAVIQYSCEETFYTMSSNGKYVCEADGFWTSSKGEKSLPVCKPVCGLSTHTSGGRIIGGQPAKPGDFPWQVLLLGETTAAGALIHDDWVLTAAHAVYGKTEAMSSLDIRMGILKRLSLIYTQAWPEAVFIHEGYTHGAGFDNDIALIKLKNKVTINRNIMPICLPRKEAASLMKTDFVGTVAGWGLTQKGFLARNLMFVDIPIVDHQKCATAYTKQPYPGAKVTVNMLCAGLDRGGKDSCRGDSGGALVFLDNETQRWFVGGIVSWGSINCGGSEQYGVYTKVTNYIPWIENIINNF

[3] = molecular target: T2, human MASP-2cf CCP1-CCP2-SP (human, UniProt O00187 298-686, limits assumed); assay: SPR, target immobilised
T2 construct: domain: CCP1-CCP2-SP; also called human MASP-2 catalytic fragment
T2 sequence (O00187 298-686 limits assumed): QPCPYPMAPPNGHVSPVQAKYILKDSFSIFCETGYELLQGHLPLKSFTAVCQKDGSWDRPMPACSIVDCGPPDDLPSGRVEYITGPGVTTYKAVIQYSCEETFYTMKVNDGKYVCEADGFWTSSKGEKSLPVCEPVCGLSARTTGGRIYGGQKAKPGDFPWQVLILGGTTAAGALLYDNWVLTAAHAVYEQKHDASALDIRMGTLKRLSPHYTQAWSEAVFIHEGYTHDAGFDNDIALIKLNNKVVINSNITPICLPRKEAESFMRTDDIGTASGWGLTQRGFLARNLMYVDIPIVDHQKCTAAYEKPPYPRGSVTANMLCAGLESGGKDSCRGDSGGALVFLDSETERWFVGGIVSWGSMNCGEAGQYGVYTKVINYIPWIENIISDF

[4] = molecular target: T3, rat MASP-2cf CCP1-CCP2-SP (rat, UniProt Q9JJS8 298-685); assay: SPR, target immobilised
T3 construct: range 298-685; Mw 42309 Da; also called rat MASP-2 catalytic fragment
T3 sequence (Q9JJS8 other isoform, or with tags, fused parts or gaps limits assumed, form in doubt): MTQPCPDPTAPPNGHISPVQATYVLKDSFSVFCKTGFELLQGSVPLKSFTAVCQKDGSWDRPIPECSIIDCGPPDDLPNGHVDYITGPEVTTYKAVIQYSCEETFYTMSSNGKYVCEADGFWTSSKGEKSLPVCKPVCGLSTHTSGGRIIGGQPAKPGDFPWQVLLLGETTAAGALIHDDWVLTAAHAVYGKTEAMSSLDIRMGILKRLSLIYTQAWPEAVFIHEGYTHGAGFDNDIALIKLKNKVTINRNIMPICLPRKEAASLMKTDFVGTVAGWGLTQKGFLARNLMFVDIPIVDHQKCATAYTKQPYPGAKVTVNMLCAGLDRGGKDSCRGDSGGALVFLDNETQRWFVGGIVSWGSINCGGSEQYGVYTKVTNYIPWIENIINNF

[5] = molecular target: T3, rat MASP-2cf CCP1-CCP2-SP; assay: enzyme inhibition, tight-binding fit
[6] = molecular target: T1, human MASP-2 (in normal human serum); assay: cell-based or functional assay; remark: listed apart in the source
[7] = molecular target: T2, human MASP-2cf CCP1-CCP2-SP; assay: enzyme inhibition, tight-binding fit

Binder	IC50, lectin pathway C4 deposition, human serum [1] [nM]	Relative potency, lectin pathway, human serum [1] [fold vs EVO2]	IC50, lectin pathway C4 deposition, rat serum [2] [nM]	Relative potency, lectin pathway, rat serum [2] [fold vs EVO2]	Kd [3] [nM]	Relative affinity [3] [fold vs EVO2]	koff [3] [s⁻¹]	kon [3] [M⁻¹ s⁻¹]	Kd [4] [nM]	Relative affinity [4] [fold vs EVO2]	koff [4] [s⁻¹]	kon [4] [M⁻¹ s⁻¹]	Ki [5] [nM]	Relative potency (relative human lectin pathway inhibitory efficiency compared to EVO2) [6]	Ki [7] [nM]
B1	9.9	14	12	8.9	0.054	33.1	4.77e-05	882000	0.108	33.6	7.53e-05	696000	0.09		
B2	6.2	22.4	12.4	8.5									0.007	22.3 fold relative to EVO2	0.065
B3	5.6	24.5	15	7.1	0.203	8.8	0.000438	2.16e+06	0.787	4.6	0.000826	1.05e+06	0.9		
B4	12.7	10.9	11	9.7	0.127	14.1	0.000131	1.03e+06	0.17	21.4	0.000113	664000	0.1	10.8 fold relative to EVO2	0.19
B5	9.8	14.1	24.2	8.9		40	4.26e-05	954000	0.566	6.4	0.000262	463000	0.27		0.1
B6	30.9	4.5	29.6	3.6	0.561	3.2	0.000617	1.1e+06	0.219	16.6	0.000184	839000	0.14		1.13
B7	138	1	106	1	1.79	1	0.0014	809000	3.63	1	0.00107	310000	0.24		0.65

Reference: patent US20260098080A1, “A MODIFIED PROTEIN SCAFFOLD AND USE THEREOF” (EVOLVERITAS BIOTECHNOLÓGIAI KORLÁTOLT FELELOSSÉGU TÁRSASÁG, priority 2022, published 2026)
